Target: GAPS4a of GAPS4^MAVP-R (Vibrio parahaemolyticus MAVP-R) (Vibrio parahaemolyticus MAVP-R)
Experiment: SEC-MALS

GAPS4b of GAPS4^MAVP-R (Vibrio parahaemolyticus MAVP-R) (natural protein)
stoichiometry N (GAPS4b per GAPS4a (2:2)): 1
